Measurements as given in article PMC4148261.
Where no end group is shown, it is not given here.

Target: Recombinant His-tagged Hsp70 protein, equivalent to HSPA1A
Test: ELISA; peptide ELISA: heat shock proteins coated on MaxiSorp plates (1 µg/well/100 µl, carbonate buffer pH 9.6, 4°C overnight), blocked with PBS 2% BSA; CF-labeled peptides 100, 50, 25 ng/ml, 27°C 30 min; fluorescence counts read

- fluorescence counts: 1200 counts
B1: carboxy-fluorescein (CF-) labeled 14-mer tumor penetrating peptide (TPP) (peptide)
peptide: TKDNNLLGRFELSG
modifications: also: carboxyfluorescein (CF) label, position not given here
